In paper PMC5052650:

Molecular target: ARTD2 N+WGR fragment (human)
Test: SAXS; proteins without DNA; measured without chromatography at three different concentrations; MW from Porod volume divided by 1.7

Sequence of ARTD2 N+WGR fragment (domain or fragment) (Q9UGN5 99-206): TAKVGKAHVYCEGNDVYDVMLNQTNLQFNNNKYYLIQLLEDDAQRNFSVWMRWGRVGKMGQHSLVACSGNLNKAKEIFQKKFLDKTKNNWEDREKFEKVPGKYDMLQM

- stoichiometry N: 2
Substance: ARTD2 N+WGR fragment (domain or fragment)
